This note sets out measurements from publication PMC11804915, “Single-stranded DNA binding to the transcription factor PafBC triggers the mycobacterial DNA damage response”.

For data set [1], the target named is T1, PafBC WT (Mycobacterium smegmatis, UniProt A4ZHT0;A0QZ41 1-331;1-318).
T1 sequence 1: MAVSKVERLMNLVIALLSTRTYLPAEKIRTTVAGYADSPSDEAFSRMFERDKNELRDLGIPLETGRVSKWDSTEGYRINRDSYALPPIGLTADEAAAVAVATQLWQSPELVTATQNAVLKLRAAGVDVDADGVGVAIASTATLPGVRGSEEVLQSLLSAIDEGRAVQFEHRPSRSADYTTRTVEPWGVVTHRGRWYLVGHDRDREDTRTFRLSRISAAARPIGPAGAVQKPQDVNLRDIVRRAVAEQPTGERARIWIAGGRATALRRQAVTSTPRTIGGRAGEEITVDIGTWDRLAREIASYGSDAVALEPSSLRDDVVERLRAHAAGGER
T1 sequence 2: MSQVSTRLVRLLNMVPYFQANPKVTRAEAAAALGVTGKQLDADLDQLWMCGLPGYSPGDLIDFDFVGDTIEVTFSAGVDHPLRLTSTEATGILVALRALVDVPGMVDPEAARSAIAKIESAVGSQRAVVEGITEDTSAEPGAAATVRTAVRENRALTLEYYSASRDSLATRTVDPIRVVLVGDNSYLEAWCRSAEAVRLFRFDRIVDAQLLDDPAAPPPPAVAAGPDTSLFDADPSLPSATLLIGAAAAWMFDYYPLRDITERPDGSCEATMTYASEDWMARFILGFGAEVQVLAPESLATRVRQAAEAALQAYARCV
Put plainly: EMSA; ssDNA EMSA: 22.5 mM Hepes-KOH pH 7.8, 135 mM NaCl, 20 mM KCl, 5 mM MgCl2, 1 mM DTT, 37 C 15 min, 10 nM DNA, 0-16 uM PafBC; RNAP EMSA: 20 mM Hepes-NaOH pH 8, 100 mM K-acetate, 36 mM NaCl, 10 mM MgCl2, 2 mM DTT, 37 C 30 min. Conditions: protein: recombinant, tags: C-terminal Strep on PafC, copies: 1;1, label: internal fluorescein-dT. For orientation: In EMSA bound probe runs differently from free probe, usually more slowly.

Data set [2] deals with T1, PafBC WT. As to the kind of experiment: analytical gel filtration; ssDNA:PafBC stoichiometry ~1:1; ssDNA EMSA: 22.5 mM Hepes-KOH pH 7.8, 135 mM NaCl, 20 mM KCl, 5 mM MgCl2, 1 mM DTT, 37 C 15 min, 10 nM DNA, 0-16 uM PafBC; RNAP EMSA: 20 mM Hepes-NaOH pH 8, 100 mM K-acetate, 36 mM NaCl, 10 mM MgCl2, 2 mM DTT, 37 C 30 min. Conditions: protein: recombinant; tags: C-terminal Strep on PafC; copies: 1;1; single strand.

The target of data set [3] is RNAP-sigmaA holoenzyme with RbpA (Mycobacterium smegmatis SMR5 …, UniProt A0QSL8;P60281;A0QS66;A0QWT1;A0QW02;A0QZ11 1-350;1-1169;1-1317;1-107;1-466;1-114). As to the kind of experiment: EMSA; nonspecific binding; ssDNA EMSA: 22.5 mM Hepes-KOH pH 7.8, 135 mM NaCl, 20 mM KCl, 5 mM MgCl2, 1 mM DTT, 37 C 15 min, 10 nM DNA, 0-16 uM PafBC; RNAP EMSA: 20 mM Hepes-NaOH pH 8, 100 mM K-acetate, 36 mM NaCl, 10 mM MgCl2, 2 mM DTT, 37 C 30 min. Conditions: protein: native, tags: TwinStrep on RpoC, His6 removed from SigA, chain copies: 2;1;1;1;1;1, blunt.

The target in data set [4] is RNAP-sigmaA holoenzyme with RbpA;CarD;PafBC, PafB Y196A (Mycobacterium smegmatis SMR5 …, UniProt A0QSL8;P60281;A0QS66;A0QWT1;A0QW02;A0QZ11;A0R561;A4ZHT0;A0QZ41 …, ||Y196A). As to the kind of experiment: EMSA; 5 uM dT12 ssDNA; retains association with RNAP; ssDNA EMSA: 22.5 mM Hepes-KOH pH 7.8, 135 mM NaCl, 20 mM KCl, 5 mM MgCl2, 1 mM DTT, 37 C 15 min, 10 nM DNA, 0-16 uM PafBC; RNAP EMSA: 20 mM Hepes-NaOH pH 8, 100 mM K-acetate, 36 mM NaCl, 10 mM MgCl2, 2 mM DTT, 37 C 30 min. Conditions: protein: native;recombinant;recombinant; tags: TwinStrep on RpoC; His6 removed from SigA;His6-thioredoxin removed by TEV;C-terminal Strep on PafC; chain copies: 2;1;1;1;1;1;1;1;1; label: 5' FAM on strand 1; blunt, internal non-complementary bubble 13 nt.

The target in data set [5] is RNAP-sigmaA holoenzyme with RbpA;PafBC WT (Mycobacterium smegmatis SMR5 …, UniProt A0QSL8;P60281;A0QS66;A0QWT1;A0QW02;A0QZ11;A4ZHT0;A0QZ41 …, |). As to the kind of experiment: EMSA; 5 uM dT12 ssDNA; PafBC shifts RNAP-DNA band; ssDNA EMSA: 22.5 mM Hepes-KOH pH 7.8, 135 mM NaCl, 20 mM KCl, 5 mM MgCl2, 1 mM DTT, 37 C 15 min, 10 nM DNA, 0-16 uM PafBC; RNAP EMSA: 20 mM Hepes-NaOH pH 8, 100 mM K-acetate, 36 mM NaCl, 10 mM MgCl2, 2 mM DTT, 37 C 30 min. Conditions: protein: native;recombinant; tags: TwinStrep on RpoC; His6 removed from SigA;C-terminal Strep on PafC; chain copies: 2;1;1;1;1;1;1;1; label: 5' FAM on strand 1; blunt, internal non-complementary bubble 13 nt.

Data set [6] addresses RNAP-sigmaA holoenzyme with RbpA;CarD;PafBC, PafC WYL variant (Mycobacterium smegmatis SMR5 …, UniProt A0QSL8;P60281;A0QS66;A0QWT1;A0QW02;A0QZ11;A0R561;A4ZHT0;A0QZ41 …, ||R201A;R204A). Put plainly: EMSA; 5 uM dT12 ssDNA; efficiency similar to WT; ssDNA EMSA: 22.5 mM Hepes-KOH pH 7.8, 135 mM NaCl, 20 mM KCl, 5 mM MgCl2, 1 mM DTT, 37 C 15 min, 10 nM DNA, 0-16 uM PafBC; RNAP EMSA: 20 mM Hepes-NaOH pH 8, 100 mM K-acetate, 36 mM NaCl, 10 mM MgCl2, 2 mM DTT, 37 C 30 min. Conditions: protein: native;recombinant;recombinant; tags: TwinStrep on RpoC; His6 removed from SigA;His6-thioredoxin removed by TEV;C-terminal Strep on PafC; chain copies: 2;1;1;1;1;1;1;1;1; label: 5' FAM on strand 1; blunt, internal non-complementary bubble 13 nt.

Data set [7] concerns the target RNAP-sigmaA holoenzyme with RbpA;CarD;PafBC, PafB WYL variant (Mycobacterium smegmatis SMR5 …, UniProt A0QSL8;P60281;A0QS66;A0QWT1;A0QW02;A0QZ11;A0R561;A4ZHT0;A0QZ41 …, ||R214A;PafB:R211A). As to the kind of experiment: EMSA; 5 uM dT12 ssDNA; PafBC variant does not join RNAP-DNA; ssDNA EMSA: 22.5 mM Hepes-KOH pH 7.8, 135 mM NaCl, 20 mM KCl, 5 mM MgCl2, 1 mM DTT, 37 C 15 min, 10 nM DNA, 0-16 uM PafBC; RNAP EMSA: 20 mM Hepes-NaOH pH 8, 100 mM K-acetate, 36 mM NaCl, 10 mM MgCl2, 2 mM DTT, 37 C 30 min. Particulars: protein: native;recombinant;recombinant; tags: TwinStrep on RpoC; His6 removed from SigA;His6-thioredoxin removed by TEV;C-terminal Strep on PafC; chain copies: 2;1;1;1;1;1;1;1;1; label: 5' FAM on strand 1; blunt, internal non-complementary bubble 13 nt.

Data set [8] addresses RNAP-sigmaA holoenzyme with RbpA;CarD;PafBC, PafB R181A/R204A/R208A (Mycobacterium smegmatis SMR5 …, UniProt A0QSL8;P60281;A0QS66;A0QWT1;A0QW02;A0QZ11;A0R561;A4ZHT0;A0QZ41 …, ||R204A;R208A;PafB:R181A). The data set is described as above. Particulars: protein: native;recombinant;recombinant; tags: TwinStrep on RpoC; His6 removed from SigA;His6-thioredoxin removed by TEV;C-terminal Strep on PafC; chain copies: 2;1;1;1;1;1;1;1;1; label: 5' FAM on strand 1; blunt, internal non-complementary bubble 13 nt.

For data set [9], the target named is RNAP-sigmaA holoenzyme with RbpA;CarD;PafBC WT (Mycobacterium smegmatis SMR5 …, UniProt A0QSL8;P60281;A0QS66;A0QWT1;A0QW02;A0QZ11;A0R561;A4ZHT0;A0QZ41 …, ||). As to the kind of experiment: EMSA; ssDNA …; no effect of CarD on complex formation; ssDNA EMSA: 22.5 mM Hepes-KOH pH 7.8, 135 mM NaCl, 20 mM KCl, 5 mM MgCl2, 1 mM DTT, 37 C 15 min, 10 nM DNA, 0-16 uM PafBC; RNAP EMSA: 20 mM Hepes-NaOH pH 8, 100 mM K-acetate, 36 mM NaCl, 10 mM MgCl2, 2 mM DTT, 37 C 30 min. Conditions: protein: native;recombinant;recombinant; tags: TwinStrep on RpoC; His6 removed from SigA;His6-thioredoxin removed by TEV;C-terminal Strep on PafC; chain copies: 2;1;1;1;1;1;1;1;1; label: 5' FAM on strand 1; blunt, internal non-complementary bubble 13 nt.

A further data set addresses T2, PafBC WT, cryo-EM sample (Mycobacterium smegmatis, UniProt A4ZHT0;A0QZ41 1-331;1-318).
T2 sequence 1: T1 sequence 1
T2 sequence 2: T1 sequence 2
As to the kind of experiment: cryo-EM; within RNAP-sigmaA promoter complex; formaldehyde-fixed; second entry 9FNE; ssDNA EMSA: 22.5 mM Hepes-KOH pH 7.8, 135 mM NaCl, 20 mM KCl, 5 mM MgCl2, 1 mM DTT, 37 C 15 min, 10 nM DNA, 0-16 uM PafBC; RNAP EMSA: 20 mM Hepes-NaOH pH 8, 100 mM K-acetate, 36 mM NaCl, 10 mM MgCl2, 2 mM DTT, 37 C 30 min. Particulars: protein: recombinant; copies: 1;1; single strand.

On to GGGCCCGGGCCCGGTATATCCGGGCCCGGGCCC (structured_DNA) [hairpin DNA control], for which the binding result in the data set with PafBC WT [1] (hairpin, 14 bp stem, 5 nt loop) was “no binding”.

In the case of TTTTTTTTTTTTTTTTTTTT (ssDNA) [dT20 ssDNA unlabeled], in the data set with PafBC WT [2], the binding result is listed as “binds”.

B1: housekeeping promoter with -10 bubble (dsDNA)
DNA 1: CCCCGTTTTGGGGCAGATGCGATTCTGAAATACTGCTTTGTCTGGCTTGTCAAGTCGCTCTGGACCGGGTTGTTTTC
DNA 2: GAAAACAACCCGGTCCAGAGCGACTTGACAAGCCAGACAAAGCAGTATTAAGCTGGCAGGGTTGCCCCAAAACGGGG
As for B1, the binding result in data set [3] (label: 5' FAM on strand 2, internal non-complementary bubble) is listed as “binds”.

B2: PafBC-specific promoter with -10 bubble (dsDNA)
DNA 1: TCGTCTACTGTGGTGAAGAGTTCGACCGGACTTGTCGGTGGTCTGCTCTAACGTCACGGCCAACCGATCGGAACACC
DNA 2: GGTGTTCCGATCGGTACCGGACATGTAAAGAGCAGACCACCGACAAGTCCGGTCGAACTCTTCACCACAGTAGACGA
Consider B2, for which the binding result in [4] is reported as “binds”; in [5] it was “binds”; in data set [6], “binds”; in data set [7] it was “no binding”; in data set [8] it was “no binding”; in data set [3] (label: 5' FAM on strand 1, internal non-complementary bubble 13 nt), “binds”. Moreover, in data set [9], the binding result was “binds”. TTGTTGTTGTT (ssDNA) [cryo-EM ssDNA ligand]: the binding result with PafBC WT, cryo-EM sample is on record as “binds”.

B3: blocked end ssDNA (dT12 between two hairpins) (structured_DNA)
DNA: GGGCCCGGGCCCGGTATATCCGGGCCCGGGCCCTTTTTTTTTTTTCCCGGGCCCGGGCCTATATGGCCCGGGCCCGGG
B3: in the data set with PafBC WT [1] (two hairpins, 14 bp stems, 5 nt loops), the binding result is given as “binds”.

B4: nonspecific DNA with bubble (dsDNA)
DNA 1: GTCGTGAAGGACACCGCCGAAGCGCCCAAGACGGCCGACGAGAAAGCCGCCGAGGCCACCGGGCCCAGCAAGGTCAA
DNA 2: TTGACCTTGCTGGGCGTCAGCATGCGAACGGCTTTCTCGTCGGCCGTCTTGGGCGCTTCGGCGGTGTCCTTCACGAC
B4: the binding result in data set [3] (label: 5' FAM on strand 1, internal non-complementary bubble) is on record as “binds”.
